Substitutions are numbered along the chain they refer to. One block for each binder: values may come before it.
What was measured:
[1] = target: T1, human CD73 (huCD73) protein, antigen of the Biacore assay (human, UniProt P21589 27-547, limits assumed); assay: SPR Biacore T200; antibody captured on Protein A chip, CD73 in flow; 1:1 Langmuir
T1 construct: also called human CD73 antigen
T1 sequence (looked up): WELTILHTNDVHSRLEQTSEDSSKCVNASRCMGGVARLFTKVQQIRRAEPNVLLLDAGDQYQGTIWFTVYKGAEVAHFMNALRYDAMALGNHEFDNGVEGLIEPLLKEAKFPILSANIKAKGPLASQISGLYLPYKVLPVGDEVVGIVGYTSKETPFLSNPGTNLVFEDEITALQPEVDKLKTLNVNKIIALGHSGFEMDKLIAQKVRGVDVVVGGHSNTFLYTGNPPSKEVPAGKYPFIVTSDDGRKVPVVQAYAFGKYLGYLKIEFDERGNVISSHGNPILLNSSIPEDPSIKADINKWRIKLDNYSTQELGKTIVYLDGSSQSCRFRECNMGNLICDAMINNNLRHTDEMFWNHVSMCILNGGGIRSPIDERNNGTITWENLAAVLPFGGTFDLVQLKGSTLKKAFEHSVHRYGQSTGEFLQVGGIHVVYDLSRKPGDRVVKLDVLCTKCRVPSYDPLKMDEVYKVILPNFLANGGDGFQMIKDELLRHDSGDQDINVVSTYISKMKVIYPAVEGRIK
Method in brief: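 Antibody was captured on a Protein A chip and human or cynomolgus CD73 antigen was flowed over it in HBS-EP running buffer. Surfaces were regenerated with glycine-HCl pH 1.5, and affinities came from a 1:1 Langmuir fit.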

[2] = target: T2, CD73-Myc-His (a fusion protein of the CD73 mature protein extracellular domain and Myc tag and His tag) (human, UniProt P21589 27-547, biotinylated with a kit (sites not given)); assay: ELISA; biotinylated CD73-myc-his captured on streptavidin plate
T2 construct: Captured on streptavidin-coated plates in the ELISA; also called biotinylated CD73-myc-his fusion protein; human CD73 protein
T2 sequence: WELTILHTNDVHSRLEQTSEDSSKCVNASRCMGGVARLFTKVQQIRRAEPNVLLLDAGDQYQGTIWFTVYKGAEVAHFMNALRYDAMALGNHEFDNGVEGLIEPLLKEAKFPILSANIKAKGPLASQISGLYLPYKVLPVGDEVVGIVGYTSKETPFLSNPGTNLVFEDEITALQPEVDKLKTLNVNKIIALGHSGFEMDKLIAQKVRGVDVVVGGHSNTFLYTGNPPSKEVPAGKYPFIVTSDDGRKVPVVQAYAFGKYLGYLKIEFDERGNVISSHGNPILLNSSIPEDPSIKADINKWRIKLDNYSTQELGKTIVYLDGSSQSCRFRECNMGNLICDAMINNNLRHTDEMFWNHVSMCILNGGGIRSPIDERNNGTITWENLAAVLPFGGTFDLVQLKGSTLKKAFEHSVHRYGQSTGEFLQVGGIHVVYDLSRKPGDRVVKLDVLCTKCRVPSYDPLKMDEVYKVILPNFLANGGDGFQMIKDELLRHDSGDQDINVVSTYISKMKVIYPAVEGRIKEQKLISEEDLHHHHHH
Procedure: The binding of anti-CD73 antibodies to human CD73 protein was tested by ELISA assay. The biotinylated CD73 fusion protein was immobilized onto a 96-well microtiter plate by binding to the Streptavidin coated on the microtiter plate. The signal strength after the addition of the antibody was used to determine the binding activity of the antibody to CD73. The specific experimental procedures were as follows:
Streptavidin (Sigma, Cat No. S4762-5MG) was diluted with PBS, pH7.4 (Shanghai BasalMedia, Cat No. B320) buffer to a concentration of […], was added into the 96-well microtiter plate (Corning, Cat No. CLS3590-100EA), 50 μl/well, and incubated in an incubator at 37° C. for 2 hours. The liquid was discarded, 250 μl/well blocking solution (5% skim milk (BD skim milk, Cat No. 232100) diluted in PBS) was added, and incubated in an incubator at 37° C. for 3 hours or at 4° C. overnight (16-18 hours) for blocking. After blocking, the blocking solution was discarded; the plate was washed for 5 times with PBST buffer (PBS containing 0.05% tween-20, pH7.4), 50 μl/well of biotinylated CD73-myc-his fusion protein (Tojin Chemical, Cat No. LK03, biotinylation method was according to the kit's instruction) diluted with sample diluent (PBS containing 1% BSA, pH7.4) was added, and incubated in an incubator at 37° C. 1 hour or at 4° C. overnight. After the incubation was finished, the reaction solution was removed from the microtiter plate, the plate was washed for 5 times with PBST, 50 μl/well of various concentrations of each of the test antibodies (purified hybridoma antibodies or humanized antibodies, diluted with sample diluent) were added, and incubated in an incubator at 37° C. for 1 hour. After the incubation was finished, the plate was washed for 5 times with PBST, 50 µl/well of HRP-labeled goat anti-mouse secondary antibody (Jackson Immuno Research, Cat No. 115-035-003) or goat anti-human secondary antibody (Jackson Immuno Research, Cat No. 109-035-003) diluted with sample diluent was added, and incubated at 37° C. for 1 hour. The plate was washed for 5 times with PBST, 50 μl/well of TMB chromogenic substrate (KPL, Cat No. 52-00-03) was added, incubated at room temperature for 5-10 min, and 50 μl/well of 1M H₂SO₄ was added to stop the reaction.

B3: Hab108.64 (antibody, human IgG1, kappa, V domains shown)
VH: EVTLKQSGPGLVKPTETLTLTCTVSGFSLSSYGIQWVRQPPGKGLEWLGVIWSGGSADYNAAFISRLTISKDTSKSQVVLTMTNMDPVDTATYYCAGQYGSVWGQGTLVTVSS
VL: DIQMTQSPSSLSASVGDRVTITCRASQDIGDRLNWLQQKPGGAIKRLIYATSSLDSGVPKRFSGSGSGTEYTLTISSLQPEDFATYYCLQYAGSWTFGGGTKVEIKR
notes: also called humanized antibody of mab108
- Kd [1]: 0.412 nM
- koff [1]: 9.24e-05 s⁻¹
- kon [1]: 224000 M⁻¹ s⁻¹
- EC50 [2]: 0.047 nM

B4: CPX006 (antibody CPX-006 disclosed in patent application WO2018013611) (antibody, V domains shown)
VH: QVQLVQSGAEVEKPGASVKVSCKASGYTFTSYWITWVRQAPGQGLEWMGDIYPGSGNTNYNEKFKTRVTITADKSTSTAYMELSSLRSEDTAVYYCAKEGGLTTEDYALDYWGQGTLVTVSS
VL: EIVLTQSPATLSLSPGERATLSCRASKNVSTSGYSYMHWYQQKPGQAPRLLIYLASNLESGIPPRFSGSGYGTDFTLTINNIESEDAAYYFCQHSRELPFTFGQGTKVEIKR
- Kd [1]: 1.85 nM
- koff [1]: 0.000368 s⁻¹
- kon [1]: 199000 M⁻¹ s⁻¹
- EC50 [2]: 0.088 nM

More lines, now with the values ahead:

- Kd [1]: 0.0944 nM
- koff [1]: 6.14e-05 s⁻¹
- kon [1]: 650000 M⁻¹ s⁻¹
- EC50 [2]: 0.026 nM
B1: Hab110.21 (antibody, human IgG1, kappa, V domains shown)
VH: EVQLVQSGAEVKKPGASVKVSCKASGYTFTSYTMHWVRQAPGQRLEWMGYINPNSFYIEYNQKFKDRVTITRDTSASTAYMELSSLRSEDTAVYYCARGDYDLFYDMDNWGQGTTVTVSS
VL: DIQMTQSPSSLSASVGDRVTITCRASQDIGNSLNWLQQKPGKAIKRLIYATFRLDSGVPSRFSGSRSGTEYTLTISSLQPEDFATYYCQQYASFPWTFGGGTKVEIKR
notes: also called humanized antibody of mab110

- Kd [1]: 0.257 nM
- koff [1]: 5.81e-05 s⁻¹
- kon [1]: 226000 M⁻¹ s⁻¹
- EC50 [2]: 0.026 nM
B2: Hab127.31d (antibody, human IgG1, kappa, V domains shown)
VH: EVQLVQSGAEVKKPGASVKVSCKASGYTFTAYFMNWVRQAPGQGLEWMGRIYHNKGDTFYSQKFKGRVTMTVDKSTSTVYMELSSLRSEDTAVYYCATSYVGDWGQGTTVTVSS
VL: B1 VL with N31D, K42G, I44L, F52S, R53S, R66G, Q89L
notes: also called humanized antibody of mab127

From patent US20220220218A1 (JIANGSU HENGRUI MEDICINE, published 2022)
